Four molecules from patent US12358959B2, “Compositions and methods for oligodendrocyte development” (CHILDREN'S MEDICAL CENTER CORPORATION, priority 2016, dated 2025) can be followed below.

One experiment has as its target T1, GPR56^N (Mus musculus, UniProt Q8K209).
T1 construct: Using the soluble N-terminal fragment of GPR56 (GPR56^N); made in house
The experiment can be described thus: In vitro biotinylation/proteomics pull-down from mixed glial cell lysate with mass spectrometry. To be noted: peptide sequences specific for binding to GPR56^N.
Excerpt: To identify the ligand of GPR56 in OPCs, an in vitro biotinylation/proteomics approach was employed using single-step capture on streptavidin beads to purify the binding partner(s) of GPR56 (FIGS. 2A-2B). Proteins with more than five identified tryptic peptides in the Mass Spectrometry (MS) output from three independent experiments are listed at Table 1.
(§1) GPR56^N and GPR56^Ndel fusions proteins with either mFc or hFc tag were generated as previously described (Luo et al. Proc Natl Acad Sci USA 108, 12925-12930, 2011). BirA enzyme was used to in vitro biotinylate GPR56^N-mFc-biotag protein as previously described (De Laurenzi and Melino Mol Cell Biol 21, 148-155, 2001). Mixed glial cell lysate was incubated with biotinylated GPR56^N protein in lysis buffer [20 mM Hepes (pH 7.3), 150 mM NaCl, and 5 mM MgCl2] with protein inhibitor mixture (Roche Molecular Biochemicals) and 1% Brij 96 (Fluka). Streptavidin beads (Sigma) were used to affinity purify immunocomplexes. GPR56-associated proteins were eluted in 2×SDS loading buffer, subjected to SDS/PAGE. The whole lane was used for MS at the Taplin Biological Mass Spectrometry at Havard Medical School. MS data were searched against the mouse International Protein Index (IPI mouse 339) database using the protein identification software Mascot (v2.2.04, Matrix Sciences) (Luo et al. Proc Natl Acad Sci USA 108, 12925-12930, 2011).
as §1, with “al.,” for “al.”, “(Stacey et al., J” for “(De Laurenzi and Melino Mol Cell”, “Chem 277, 29283-29293, 2002).” for “21, 148-155, 2001).”, “(20” for “[20”, “[pH 7.3],” for “(pH 7.3),”, “MgCl2)” for “MgCl2]”

Experiment [1] relates to oligodendrocyte precursors (OPCs). The experiment can be described thus: OPC proliferation on laminin-111 or fibronectin with recombinant TG2. It is filed as cell-based, mouse. From the text:
P=0.70 (control vs. TG2-W241A); **P=0.0088 (TG2 vs. TG2-W241A). […] FIG. 16D depicts a Western blot of active RhoA (top panel) and total RhoA (bottom panel) in the corpus callosum (CC) of Tgm2^+/+ and Tgm2^−/− mice. FIG. 16E is a graph showing that the relative level of active RhoA to total RhoA was diminished in the CC of Tgm2^−/− mice compared to […]. *P=0.0207, unpaired t-test, N=3 per genotype. FIG. 16F depicts a Western blot of GPR56^N in the supernatant of HEK 293T cell culture after exposed to either TG2 or TG2+laminin-111 (top panel), GTP-RhoA (middle panel) and total RhoA (lower panel) in HEK 293T cell pellet exposed to either TG2 or TG2+laminin-111. FIG. 16G is a graph showing that released GPR56 NTF was increased in the presence of both TG2 and laminin-111. ***P=0.0002; One-way ANOVA followed by Tukey post-hoc test, F (2,6)=49.66, n.s. P=0.95 (control vs. TG2); ***P=0.0003 (control vs. TG2+laminin-111); ***P=0.0004 (TG2 vs. TG2+laminin-111); N=3 per treatment group. FIG. 16H is a graph showing that the relative level of GTP-RhoA to total RhoA was increased in the presence of both TG2 and laminin-111, corresponding to the increased GPR56 NTF in the supernatant. **P=0.0028; One-way ANOVA followed by Tukey post-hoc test, F (2,6)=18.19, n.s. P=0.75 (control vs. TG2); **P=0.0035 (control vs. TG2+laminin-111); **P=0.0071 (TG2 vs. TG2+laminin-111) N=3 per treatment group. Error bars are mean±s.e.m in FIGS. 16E, 16G, and 16H.
To establish conditions for mechanistic investigation of the function of TG2 on OPC GPR56 during myelination and remyelination, in vitro experiments were performed with wt and Gpr56^−/− oligodendrocyte precursors (OPCs) and human recombinant TG2. […] TG2 is an extracellular protein with intrinsic transamidation activity, capable of cross-linking ECM proteins, including laminin-111 (Aeschlimann et al., J Biol Chem 267, 11316-11321, 1992; Belkin, FEBS J 278, 4704-4716, 2011). […] To confirm that TG2 regulates OPC proliferation in a GPR56-dependent manner, OPCs derived from P5 Gpr56^+/+ or Gpr56^−/− pups were cultured in the presence of laminin-111, with or without recombinant TG2. TG2-associated proliferation was attenuated in Gpr56^−/− OPCs (FIG. 16C), further supporting a GPR56-dependent TG2 function on OPC proliferation.
Oligodendrocyte precursor cells (OPCs) were isolated from mixed male and female P5-8 Gpr56^+/+ or Gpr56^−/− mouse forebrains as previously described (Wang et al., Neuron 29, 603-614, 2001; Watkins et al., Neuron 60, 555-569, 2008). Briefly, OPCs were purified by negatively selecting with mouse anti-Thy 1.2 (Serotec, Cat #MCA02R) and mouse anti-GalC (Millipore, Cat #MAB342), followed by mouse anti-04 (04 hybridoma supernatant) for positive selection. After releasing OPCs from the 04 plate by trypsinization, cells were resuspended in proliferation media containing PDGF-AA and NT-3 (PreproTech). OPCs were plated on coverslips coated with poly-D-lysine before coating with laminin I (R&D Systems, Cat #3400-010-01) or fibronectin (Millipore, Cat #341668) as previously described (Dugas et al., J Neurosci 26, 10967-10983, 2006). After 24 hr, TG2 (2 nM) was added to the cultures and incubated for an additional 24 hr before fixation with 4% PFA and staining for PDGFRα and Ki67.

For experiment [2], the target named is Plectin (Plec), mouse, endogenous (mixed glial cell lysate) (mouse) (UniProt Q9QXS1). The experiment can be described thus: streptavidin pull-down of biotinylated GPR56^N-mFc from mixed glial cell lysate, tryptic peptide mass spectrometry.
Experiment [3] addresses Transglutaminase 2 (Tgm2), mouse, endogenous (mixed glial cell lysate / microglia-derived) (mouse) (UniProt P21981). The description is as above.

T1 sequence (Q8K209 26-382 limits assumed): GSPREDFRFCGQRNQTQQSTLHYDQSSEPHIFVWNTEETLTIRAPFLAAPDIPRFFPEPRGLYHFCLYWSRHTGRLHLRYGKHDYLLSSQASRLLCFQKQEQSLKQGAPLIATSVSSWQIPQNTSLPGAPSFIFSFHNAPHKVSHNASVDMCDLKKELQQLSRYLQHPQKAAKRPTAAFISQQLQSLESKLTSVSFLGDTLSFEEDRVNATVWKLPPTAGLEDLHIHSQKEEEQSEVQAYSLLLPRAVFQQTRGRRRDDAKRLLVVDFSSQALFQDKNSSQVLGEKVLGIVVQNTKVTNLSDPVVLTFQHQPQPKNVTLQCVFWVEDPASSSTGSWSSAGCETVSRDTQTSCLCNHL
Chain of Transglutaminase 2 (Tgm2), mouse, endogenous (mixed glial cell lysate / microglia-derived) (mouse) (P21981 2-686 limits assumed): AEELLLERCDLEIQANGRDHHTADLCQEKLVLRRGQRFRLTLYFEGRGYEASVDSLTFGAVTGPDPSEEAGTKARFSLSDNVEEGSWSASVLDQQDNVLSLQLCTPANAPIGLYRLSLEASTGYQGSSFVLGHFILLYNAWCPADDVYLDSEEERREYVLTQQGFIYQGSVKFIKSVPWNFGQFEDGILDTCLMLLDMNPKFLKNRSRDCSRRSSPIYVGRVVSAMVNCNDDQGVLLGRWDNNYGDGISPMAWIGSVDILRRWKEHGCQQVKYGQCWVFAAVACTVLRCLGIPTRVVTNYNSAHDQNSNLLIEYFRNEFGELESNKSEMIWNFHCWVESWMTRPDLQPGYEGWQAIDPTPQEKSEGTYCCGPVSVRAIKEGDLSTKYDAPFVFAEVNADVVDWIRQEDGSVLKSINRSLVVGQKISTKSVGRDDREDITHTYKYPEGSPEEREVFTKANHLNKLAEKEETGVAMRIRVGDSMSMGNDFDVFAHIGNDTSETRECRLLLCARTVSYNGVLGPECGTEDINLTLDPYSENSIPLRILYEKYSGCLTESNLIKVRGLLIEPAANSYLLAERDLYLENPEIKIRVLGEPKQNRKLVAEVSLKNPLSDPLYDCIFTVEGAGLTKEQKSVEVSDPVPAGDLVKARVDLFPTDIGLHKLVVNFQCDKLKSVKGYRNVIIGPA

Take “Plectin (Plec): protein from mixed glial cell lysate purified with GPR56^N”: the “Peptide Number (Exp1)” value with GPR56^N (experiment 1) is recorded as 21. Moreover, the “Peptide Number (Exp2)” value with GPR56^N (experiment 2) worked out at 22. For the same molecule, the “Peptide Number (Exp3)” value with GPR56^N (experiment 3) was 23.
For the molecule fibronectin [reference compound], the OPC proliferation entry in experiment [1] (wt OPCs, fibronectin as specificity control in place of laminin-111, with recombinant TG2) is reported as “inert”.
On to “biotinylated GPR56^N-mFc-biotag protein (Fc fusion)”, for which, in experiment [2], the Peptide Number (Exp1) stood at 21 peptides, the Peptide Number (Exp2) stood at 22 peptides and the Peptide Number (Exp3) was found to be 23 peptides. Moreover, in experiment [3], the Peptide Number (Exp1) was found to be 19 peptides, the Peptide Number (Exp2) stood at 20 peptides and the Peptide Number (Exp3) was 17 peptides.

B1: TG2-W241A: transamidation-inactive, enzymatic dead mutant TG2 protein (protein)
chain: MAEELVLERCDLELETNGRDHHTADLCREKLVVRRGQPFWLTLHFEGRNYEASVDSLTFSVVTGPAPSQEAGTKARFPLRDAVEEGDWTATVVDQQDCTLSLQLTTPANAPIGLYRLSLEASTGYQGSSFVLGHFILLFNAWCPADAVYLDSEEERQEYVLTQQGFIYQGSAKFIKNIPWNFGQFEDGILDICLILLDVNPKFLKNAGRDCSRRSSPVYVGRVVSGMVNCNDDQGVLLGRADNNYGDGVSPMSWIGSVDILRRWKNHGCQRVKYGQCWVFAAVACTVLRCLGIPTRVVTNYNSAHDQNSNLLIEYFRNEFGEIQGDKSEMIWNFHCWVESWMTRPDLQPGYEGWQALDPTPQEKSEGTYCCGPVPVRAIKEGDLSTKYDAPFVFAEVNADVVDWIQQDDGSVHKSINRSLIVGLKISTKSVGRDEREDITHTYKYPEGSSEEREAFTRANHLNKLAEKEETGMAMRIRVGQSMNMGSDFDVFAHITNNTAEEYVCRLLLCARTVSYNGILGPECGTKYLLNLNLEPFSEKSVPLCILYEKYRDCLTESNLIKVRALLVEPVINSYLLAERDLYLENPEIKIRILGEPKQKRKLVAEVSLQNPLPVALEGCTFTVEGAGLTEEQKTVEIPDPVEAGEEVKVRMDLLPLHMGLHKLVVNFESDKLKAVKGFRNVIIGPA
In the case of B1, the “OPC proliferation, wild type TG2 vs enzymatic dead mutant” value in experiment [1] (versus control, One-way ANOVA, Tukey post-hoc) was “failed to promote OPC proliferation and n.s”.
